From patent publication US20260297205 (published 2026)
Positions count from the first letter of the chain named.

B1: GH41 (antibody, V domains shown)
VH: EVQLVESGGGLVQPGGSLRLSCAASGFNFSSSSIHWVRQAPGKGLEWVASISPYSGYTSYADSVKGRFTISADTSKNTAYLQMNSLRAEDTAVYYCARGYGGWYWWYTFAFDYWGQGTLVTV
VL: DIQMTQSPSSLSASVGDRVTITCRASQSVSSAVAWYQQKPGKAPKLLIYSASSLYSGVPSRFSGSRSGTDFTLTISSLQPEDFATYYCQQSSSSELLTFGQGTKVEIKR
B2: GH19 (antibody, V domains shown)
VH: EVQLVESGGGLVQPGGSLRLSCAASGFNFSYSYIHWVRQAPGKGLEWVASIYSYSGYTSYADSVKGRFTISADTSKNTAYLQMNSLRAEDTAVYYCARYKWWAMDYWGQGTLVTV
VL: DIQMTQSPSSLSASVGDRVTITCRASQSVSSAVAWYQQKPGKAPKLLIYSASSLYSGVPSRFSGSRSGTDFTLTISSLQPEDFATYYCQQSGSWPITFGQGTKVEIKR
B3: GH23 (antibody, V domains shown)
VH: B2 VH with F29V, Y31S, Y99F, K100W, W101V
VL: B2 VL with G92S, S93Y, W94I, I96L
B4: GH9 (antibody, V domains shown)
VH: B2 VH with F29V, S30Y, Y31S, Y99H, K100S, W101S
VL: B2 VL with G92S, S93F, W94V, I96L
B5: GH25 (antibody, V domains shown)
VH: EVQLVESGGGLVQPGGSLRLSCAASGFNFSYYSIHWVRQAPGKGLEWVASISSYYGYTSYADSVKGRFTISADTSKNTAYLQMNSLRAEDTAVYYCARYFLGMDYWGQGTLVTV
VL: B2 VL with S91Y, G92R, S93Y, W94P
B6: GH42 (antibody, V domains shown)
VH: EVQLVESGGGLVQPGGSLRLSCAASGFNFSSSYIHWVRQAPGKGLEWVASISSSSGSTSYADSVKGRFTISADTSKNTAYLQMNSLRAEDTAVYYCARSPWYVYWYFGSALDYWGQGTLVTV
VL: B2 VL with G92S, W94S, P95L
B7: GH18 (antibody, V domains shown)
VH: EVQLVESGGGLVQPGGSLRLSCAASGFNFYSSYIHWVRQAPGKGLEWVASIYSYSGYTSYADSVKGRFTISADTSKNTAYLQMNSLRAEDTAVYYCARYKEPFGMDYWGQGTLVTV
VL: B2 VL with G92N, S93Y, W94M, I96L
B8: GH10 (antibody, V domains shown)
VH: EVQLVESGGGLVQPGGSLRLSCAASGFNFYSSSIHWVRQAPGKGLEWVAYISPYSGYTSYADSVKGRFTISADTSKNTAYLQMNSLRAEDTAVYYCARIAYKWYMPYYYGMDYWGQGTLVTV
VL: B2 VL with G92L, W94S, P95L, I96V

target: human growth hormone (GH) (human, UniProt P01241); test: SPR, 20C
Sequence (P01241 27-217): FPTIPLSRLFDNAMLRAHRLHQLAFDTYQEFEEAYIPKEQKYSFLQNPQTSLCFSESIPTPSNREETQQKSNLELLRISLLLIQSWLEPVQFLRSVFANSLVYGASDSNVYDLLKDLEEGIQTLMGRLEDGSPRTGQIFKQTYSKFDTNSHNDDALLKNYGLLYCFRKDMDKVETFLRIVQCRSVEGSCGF

Row | Kd [nM] | Binder
1 | 2.6 | B1
2 | 5.9 | B2
3 | 0.17 | B3
4 | 18 | B4
5 | 0.14 | B5
6 | 2.2 | B6
7 | 12.5 | B7
8 | 3.6 | B8
